# Laboratory results from the supplement of paper PMC9112550, “Optimization of the antimicrobial peptide Bac7 by deep mutational scanning” (BMC Biology, 2022).
# Tested on: Escherichia coli TOP10
# Assay: shrunken log2 fold change of peptide-encoding DNA abundance (4.5 h post-induction vs induction); higher = less antimicrobial activity (less host growth inhibition)
# Conditions: time post-induction: 4.5 h; library: site-saturation at positions 5, 18, 19, 20
# 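Further: peptides expressed intracellularly from a pBAD plasmid library in pooled LB shake-flask culture, induced with 0.3% L-arabinose, DNA abundance read by NGS, three biological replicates, DESeq2 with apeglm shrinkage.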
row,Sequence,shrunken log2 fold change
1,RRIRMRPPRLPRPRPRPFCAPRP,0.358
2,RRIRWRPPRLPRPRPRPYLYPRP,-0.216
3,RRIRSRPPRLPRPRPRPMSTPRP,-0.13
4,RRIRPRPPRLPRPRPRPWSWPRP,0.217
5,RRIRRRPPRLPRPRPRPVFFPRP,0.255
6,RRIRMRPPRLPRPRPRPSYVPRP,-0.331
7,RRIRHRPPRLPRPRPRPFWWPRP,0.0369
8,RRIRSRPPRLPRPRPRPLQSPRP,0.49
9,RRIRHRPPRLPRPRPRPHKQPRP,-0.225
10,RRIRTRPPRLPRPRPRPNNPPRP,-0.684
11,RRIRPRPPRLPRPRPRPTMTPRP,0.0633
12,RRIRQRPPRLPRPRPRPGTAPRP,0.206
13,RRIRSRPPRLPRPRPRPFHPPRP,0.0938
14,RRIRPRPPRLPRPRPRPLPNPRP,0.0283
15,RRIRPRPPRLPRPRPRPKFRPRP,-0.122
16,RRIRKRPPRLPRPRPRPEPGPRP,0.608
17,RRIRHRPPRLPRPRPRPYCMPRP,-1.05
18,RRIRERPPRLPRPRPRPGELPRP,-0.26
19,RRIRDRPPRLPRPRPRPMIQPRP,-0.103
20,RRIRGRPPRLPRPRPRPVIYPRP,0.0164
21,RRIRQRPPRLPRPRPRPPITPRP,-0.0813
22,RRIRERPPRLPRPRPRPPGSPRP,-0.0206
23,RRIRDRPPRLPRPRPRPQWQPRP,-0.0558
24,RRIRARPPRLPRPRPRPHWEPRP,-0.00635
25,RRIRVRPPRLPRPRPRPEEIPRP,-0.0172

row,Sequence,shrunken log2 fold change
1,RRIRVRPPRLPRPRPRPIEEPRP,-0.181
2,RRIRERPPRLPRPRPRPWGYPRP,-0.279
3,RRIRGRPPRLPRPRPRPHQNPRP,0.58
4,RRIRLRPPRLPRPRPRPKSIPRP,-0.189
5,RRIRTRPPRLPRPRPRPDHHPRP,-0.474
6,RRIRLRPPRLPRPRPRPHVQPRP,-0.528
7,RRIRIRPPRLPRPRPRPWMEPRP,-0.172
8,RRIRYRPPRLPRPRPRPTWLPRP,0.00076
9,RRIRKRPPRLPRPRPRPCYQPRP,-0.42
10,RRIRWRPPRLPRPRPRPREYPRP,0.0698
11,RRIRPRPPRLPRPRPRPCHTPRP,-0.498
12,RRIRSRPPRLPRPRPRPFNQPRP,-0.295
13,RRIRWRPPRLPRPRPRPAWHPRP,0.162
14,RRIRDRPPRLPRPRPRPARFPRP,0.446
15,RRIRWRPPRLPRPRPRPYNHPRP,-1.43
16,RRIRDRPPRLPRPRPRPSIMPRP,-0.0808
17,RRIRIRPPRLPRPRPRPNNYPRP,-0.996
18,RRIRGRPPRLPRPRPRPYFHPRP,-0.462
19,RRIRDRPPRLPRPRPRPVMPPRP,-0.189
20,RRIRRRPPRLPRPRPRPECRPRP,0.272
21,RRIRLRPPRLPRPRPRPTSQPRP,-0.145
22,RRIRNRPPRLPRPRPRPQNQPRP,-0.212
23,RRIRIRPPRLPRPRPRPLYTPRP,-0.723
24,RRIRIRPPRLPRPRPRPSAIPRP,-0.0599
25,RRIRDRPPRLPRPRPRPRQHPRP,0.153

row,Sequence,shrunken log2 fold change
1,RRIRRRPPRLPRPRPRPAWEPRP,0.301
2,RRIRCRPPRLPRPRPRPIFYPRP,-0.32
3,RRIRHRPPRLPRPRPRPVQYPRP,0.00489
4,RRIRQRPPRLPRPRPRPCDEPRP,0.0697
5,RRIRFRPPRLPRPRPRPVCEPRP,0.182
6,RRIRQRPPRLPRPRPRPNESPRP,-0.0813
7,RRIRWRPPRLPRPRPRPFQEPRP,-0.0827
8,RRIRHRPPRLPRPRPRPRTFPRP,0.147
9,RRIRERPPRLPRPRPRPHKRPRP,3.62
10,RRIRPRPPRLPRPRPRPNAIPRP,-0.0755
11,RRIRGRPPRLPRPRPRPRQGPRP,0.654
12,RRIRERPPRLPRPRPRPFNGPRP,-0.145
13,RRIRPRPPRLPRPRPRPCKYPRP,-0.499
14,RRIRLRPPRLPRPRPRPTYYPRP,-0.399
15,RRIRMRPPRLPRPRPRPDGEPRP,0.857
16,RRIRDRPPRLPRPRPRPDPRPRP,0.0663
17,RRIRDRPPRLPRPRPRPDPMPRP,0.0611
18,RRIRQRPPRLPRPRPRPKDHPRP,-0.185
19,RRIRRRPPRLPRPRPRPQCRPRP,0.123
20,RRIRIRPPRLPRPRPRPIYTPRP,-0.728
21,RRIRYRPPRLPRPRPRPSEVPRP,-0.177
22,RRIRMRPPRLPRPRPRPAKAPRP,0.0749
23,RRIRMRPPRLPRPRPRPENRPRP,0.247
24,RRIRIRPPRLPRPRPRPSYSPRP,-0.694
25,RRIRIRPPRLPRPRPRPCDKPRP,-0.0161

row,Sequence,shrunken log2 fold change
1,RRIRQRPPRLPRPRPRPNLEPRP,-0.136
2,RRIRFRPPRLPRPRPRPVTTPRP,0.173
3,RRIRSRPPRLPRPRPRPHWNPRP,-0.429
4,RRIRCRPPRLPRPRPRPIQEPRP,0.0221
5,RRIRCRPPRLPRPRPRPQTGPRP,-0.144
6,RRIRIRPPRLPRPRPRPIKRPRP,-0.0331
7,RRIRPRPPRLPRPRPRPQWLPRP,-0.0256
8,RRIRFRPPRLPRPRPRPQTEPRP,-0.00927
9,RRIRMRPPRLPRPRPRPKEYPRP,0.189
10,RRIRLRPPRLPRPRPRPALDPRP,0.396
11,RRIRRRPPRLPRPRPRPWPVPRP,0.0907
12,RRIRWRPPRLPRPRPRPTTEPRP,0.207
13,RRIRLRPPRLPRPRPRPKPQPRP,0.212
14,RRIRYRPPRLPRPRPRPPCTPRP,-0.33
15,RRIRHRPPRLPRPRPRPLINPRP,-0.201
16,RRIRKRPPRLPRPRPRPNFLPRP,-0.185
17,RRIRNRPPRLPRPRPRPTHFPRP,-0.659
18,RRIRRRPPRLPRPRPRPRDPPRP,0.74
19,RRIRSRPPRLPRPRPRPSTRPRP,-0.0999
20,RRIRQRPPRLPRPRPRPLEVPRP,-0.0417
21,RRIRIRPPRLPRPRPRPNIDPRP,-0.619
22,RRIRWRPPRLPRPRPRPKKNPRP,0.341
23,RRIRTRPPRLPRPRPRPTGDPRP,0.475
24,RRIRSRPPRLPRPRPRPTCYPRP,-0.0144
25,RRIRARPPRLPRPRPRPAIYPRP,-0.0399

row,Sequence,shrunken log2 fold change
1,RRIRGRPPRLPRPRPRPEWPPRP,1.13
2,RRIRMRPPRLPRPRPRPDRRPRP,-0.0127
3,RRIRHRPPRLPRPRPRPKGFPRP,0.0595
4,RRIRYRPPRLPRPRPRPQNRPRP,-0.0755
5,RRIRMRPPRLPRPRPRPKPMPRP,1.14
6,RRIRDRPPRLPRPRPRPRNAPRP,-0.145
7,RRIRCRPPRLPRPRPRPQNRPRP,-0.111
8,RRIRERPPRLPRPRPRPPPNPRP,0.451
9,RRIRDRPPRLPRPRPRPVVPPRP,0.0405
10,RRIRRRPPRLPRPRPRPCCLPRP,0.0396
11,RRIRGRPPRLPRPRPRPLPDPRP,0.926
12,RRIRKRPPRLPRPRPRPFWTPRP,0.0312
13,RRIRKRPPRLPRPRPRPVYYPRP,-0.094
14,RRIRPRPPRLPRPRPRPIWEPRP,0.0926
15,RRIRKRPPRLPRPRPRPGACPRP,0.237
16,RRIRERPPRLPRPRPRPSWHPRP,-0.215
17,RRIRNRPPRLPRPRPRPAQFPRP,0.0855
18,RRIRQRPPRLPRPRPRPYLPPRP,-0.0206
19,RRIRWRPPRLPRPRPRPITHPRP,-0.126
20,RRIRYRPPRLPRPRPRPLQLPRP,-1.13
21,RRIRNRPPRLPRPRPRPSVPPRP,-0.344
22,RRIRPRPPRLPRPRPRPGAWPRP,0.132
23,RRIRHRPPRLPRPRPRPKQTPRP,0.179
24,RRIRKRPPRLPRPRPRPYAAPRP,-0.102
25,RRIRWRPPRLPRPRPRPMTDPRP,0.0543

row,Sequence,shrunken log2 fold change
1,RRIRNRPPRLPRPRPRPSQLPRP,0.00155
2,RRIRQRPPRLPRPRPRPKLWPRP,-0.0821
3,RRIRQRPPRLPRPRPRPQWDPRP,0.0263
4,RRIRVRPPRLPRPRPRPAEGPRP,-0.0119
5,RRIRHRPPRLPRPRPRPPSLPRP,-0.0977
6,RRIRGRPPRLPRPRPRPLQMPRP,2.6
7,RRIRIRPPRLPRPRPRPGFCPRP,0.135
8,RRIRTRPPRLPRPRPRPCGFPRP,0.268
9,RRIRWRPPRLPRPRPRPLLQPRP,0.2
10,RRIRARPPRLPRPRPRPSDRPRP,-0.0583
11,RRIRIRPPRLPRPRPRPKMQPRP,-0.293
12,RRIRCRPPRLPRPRPRPFVSPRP,-0.265
13,RRIRIRPPRLPRPRPRPSMVPRP,-0.654
14,RRIRLRPPRLPRPRPRPKCVPRP,0.0912
15,RRIRFRPPRLPRPRPRPWFRPRP,-0.151
16,RRIRWRPPRLPRPRPRPWQLPRP,-0.18
17,RRIRTRPPRLPRPRPRPYFFPRP,-0.684
18,RRIRGRPPRLPRPRPRPKSQPRP,0.556
19,RRIRERPPRLPRPRPRPLVLPRP,-0.333
20,RRIRIRPPRLPRPRPRPESMPRP,0.0174
21,RRIRNRPPRLPRPRPRPHRWPRP,0.0666
22,RRIRARPPRLPRPRPRPVNWPRP,0.459
23,RRIRNRPPRLPRPRPRPHFEPRP,0.066
24,RRIRQRPPRLPRPRPRPCMKPRP,-0.0118
25,RRIRNRPPRLPRPRPRPFTCPRP,-0.215
